Data: doi:10.1101/2024.05.31.596867

Target: de-glycosylated KEN SVMP PIII (PNGase F treated under native conditions) (Bitis arietans (puff adder, Kenya))
Assay: gelatin zymogram

de-glycosylated KEN SVMP PIII (PNGase F treated under native conditions) (enzyme)
stoichiometry N: 2
